Test results as given in PMC10602183 (2023).

Assays:
Experiment in all cases: SPR
[1] = target: autologous gp120 antigen A2 (HIV-1 clade A isolate 92UG037.8)
[2] = target: autologous gp120 antigen Czm (HIV-1 clade C isolate 96ZM652)
[3] = target: wild type gp120 Env protein AE (HIV-1 clade E isolate 93TH976.17)
[4] = target: autologous gp120 antigen B (HIV-1 clade B isolate 92US715.6)
Bal gp120 [5] = target: T1, Bal gp120 (HIV-1 clade B isolate Bal)
Bal gp120 [6] = target: T1, Bal gp120; remark: listed apart in the source

B1: HmAb64 (antibody, V domains shown)
VH: QVQLVQSGAEVKKPGASVKVSCKASGYTFTSYDITWVRQAPGQGLEWMGWISAYNGDTNYAQRLQGRVTMTTDTSTSTAYMELRSLRSDDTAVYYCARAKHTVLVTAMRWFDPWGQGTLVTVSS
VL: DIQMTQSPSSLSASVGDRVTITCRASQSISNYLNWYQQKPGKAPKLLISATSSLQSGVPSRFSGSGSGTDFTLTISSLQPDDFATYYCQQSYSTPWTFGQGTKLEIK
Kd [1]: 39.4 nM
koff [1]: 0.000641 s⁻¹
Kd [2]: 22.5 nM
koff [2]: 0.000454 s⁻¹
Kd [3]: 20 nM
koff [3]: 0.000423 s⁻¹
Kd [4]: 22.9 nM
koff [4]: 0.000684 s⁻¹
Kd (Bal gp120 [5]): 16 nM
koff (Bal gp120 [6]): 0.000459 s⁻¹
